Patent publication US20130058902A1, “DENDRITIC CELL SUBSETS FOR GENERATING INDUCED TOLEROGENIC DENDRITIC CELLS AND RELATED COMPOSITIONS AND METHODS” (Selecta Biosciences, Inc., priority 2011, published 2013)

Tested on: DCs in the spleen
Experiment: Expansion of spleen DCs in donor mice inoculated with FLT-3 ligand expressing melanoma cells
Format: in vivo, C57BL/6 mice
Conditions: spleen of syngeneic donor mice inoculated 10 days earlier with FLT-3 ligand expressing melanoma cells
Description: For each treatment day syngeneic donor mice were inoculated 10 days earlier with Fms-like tyrosine kinase 3 (FLT-3) ligand expressing melanoma cells s.s. (performed on days−10, 4, 18 in donor C57BL/6 age-matched mice). Flt3 ligand is a growth factor for DCs and allows for greater total number of DCs to be present in the spleen. This increased the number of DCs more than 10-fold and allowed for more cells to be available for in vitro treatment and in vivo administration.

B1: Flt3 ligand: growth factor for DCs, delivered by FLT-3 ligand expressing melanoma cells inoculated into donor mice (protein, UniProt P49772 27-232, looked up)
Fms-related tyrosine kinase 3 …: GTPDCYFSHSPISSNFKVKFRELTDHLLKDYPVTVAVNLQDEKHCKALWSLFLAQRWIEQLKTVAGSKMQTLLEDVNTEIHFVTSCTFQPLPECLRFVQTNISHLLKDTCTQLLALKPCIGKACQNFSRCLEVQCQPDSSTLLPPRSPIALEATELPEPRPRQLLLLLLLLLPLTLVLLAAAWGLRWQRARRRGELHPGVPLPSHP
increase of the number of DCs: more than 10 fold
